# Assay results as given in patent US7238786B2, “Monoclonal antibody cPAM4” (Immunomedics, Inc., priority 2002, dated 2007).
# Where a SMILES comes first, the peptide text is derived from it. Side-chain parts run from the residue outwards. The star is where a group is joined. DTPA = O=C(O)CN(CCN(CC(=O)O)CC(=O)O)CCN(CC(=O)O)CC(=O)*; X1 = NC(=S)NN=CC(=O)*
# B1: PAM4: murine MUC1 monoclonal antibody developed with pancreatic cancer mucin from the xenografted RIP-1 human pancreatic carcinoma as immunogen (antibody, V domains shown)
# VL: DIVMTQSPAIMSASPGEKVTMTCSASSSVSSSYLYWYQQKPGSSPKLWIYSTSNLASGVPARFSGSGSGTSYSLTISSMEAEDAASYFCHQWNRYPYTFGGGTKLEIK
# VH: EVQLQESGPELVKPGASVKMSCKASGYTFPSYVLHWVKQKPGQGLEWIGYINPYNDGTQYNEKFKGKATLTSDKSSSTAYMELSRLTSEDSAVYYCARGFGGSYGFAYWGQGTLITVSA
# Tests used:
# CaPan1 tumor = experiment: Pre-targeting with bsMAb and radiolabeled peptide-haptens in CaPan1 tumor-bearing mice; details: peptide pre-targeted with bsPAM4, 3-Hours
# Procedure: Mice were sacrificed at 3 and 24 hours after the administration of peptides and the % ID/g determined for the tumor and various tissues.
# Pancreatic Tumors = experiment: Immunohistochemical reactivity of monoclonal antibodies with pancreatic tumors; assay type: binding, human; parameters: key to Immunohistochemical reactivity: −: Negative; +: 5–20% of tissue is stained; ++: 21–50% of tissue is stained; +++: >50% of tissue is stained
# Description: (§1) Normal pancreatic tissue, including ducts, ductules, acini, and islet cells, were negative for staining. A PAM4 based enzyme immunoassay with tissue homogenates as antigens generally supported the immunohistology data (Table 2). The PAM4 epitope was absent from normal pancreas and other nongastrointestinal tissues. In neoplastic tissues, PAM4 was reactive with twenty one out of twenty five ([…]) pancreatic cancers (Table 3). PAM4 reactivity appeared to correlate with the stage of tumor differentiation. […] Generally, poorly differentiated tumors represent less than 10% of all pancreatic cancers.
# (§2) These studies have shown the PAM4 reactivity and tissue distribution (both normal and cancer) to be unlike that reported for CA19.9, DUPAN2, SPAN1, Nd2, B72.3, and the Lewis antigens. […] When compared to CA19.9, DUPAN2, and aLe^a, PAM4 appears to be more restricted in its tissue distribution and it is reactive with a higher percentage of pancreatic tumors. Moreover, it gives a greater overall intensity of reaction at equivalent concentrations and is reactive with a higher percentage of cells within the tumors. […] Although it is recognized that specificity is dependent upon the type of assay employed and the range and number of tissues examined, the ability of PAM4 to discriminate between normal and neoplastic pancreatic tissue, its ability to react with a large percentage of the cancer specimens, as well as the high intensity of the reactions, were important rationales for pursuing developmental studies of clinical application.
# tumors = experiment: Clinical studies with PAM4 MAb: targeting and dosimetry; assay type: in vivo, human; details: patients
# [1] = test system: chronic pancreatitis specimens; experiment: Immunohistochemistry of chronic pancreatitis specimens; assay type: binding, human; details: twelve specimens
# Description: as §2
# CaPan1 = experiment: Biodistribution and dosimetry of radiolabeled PAM4, CaPan1 xenograft; details: in vivo
# Procedure: Initial biodistribution studies of PAM4 were carried out in a series of four different xenografted human pancreatic tumors covering the range of expected differentiation. […] The biodistribution data were used to estimate potential radiation doses to the tumor of 12,230; 10,684; 6,835; and 15,843 cGy/mCi of injected dose to AsPc1, BxPc3, Hs766T and CaPan1, respectively. With an actual maximum tolerated dose (MTD) of 0.7 mCi, PAM4 could provide substantial rad dose to each of the xenografted tumor models. […] Potential radiation doses to the blood from PAM4 were 1.4-4.4 fold lower than from Ag8. […] Importantly, potential radiation doses to non-tumor tissues were minimal.
# The biodistribution of PAM4 was compared with an anti-CEA antibody, MN14, using the CaPan1 tumor model. The concentration of PAM4 within the tumor was much greater than the MN14 at early timepoints, yielding tumor:blood ratios at day three of 12.7±2.3 for PAM4 compared to 2.7±1.9 for MN14. […] This was due to a rapid clearance of PAM4 from the tumor, such that at later timepoints similar concentrations of the two antibodies were present within the tumors. A rapid clearance of PAM4 from the tumor was also noted in the BxPc3 and Hs766T but not AsPc1 tumor models. […] Results from studies on the metabolism of PAM4, indicate that after initial binding to the tumor cell, antibody is rapidly released, possibly being catabolized or being shed as an antigen:antibody complex. This might have had unfavorable implications for the use of the antibody in patients except that the blood clearance is also very rapid.
# This type of splenic targeting has been observed in the clinical application of the anti-mucin antibodies B72.3 and CC49. […] The latter would require the presence of immune complexes in the blood; however, these were not observed when specimens as early as five minutes and as late as seven days were examined by gel filtration (HPLC, GF-250 column); radiolabeled antibody eluted as native material. The former explanation seems more likely in view of the fact that the CaPan1 tumor produced large quantities of PAM4-reactive antigen, 100 to 1000-fold higher than for the other tumor cell lines examined. […] In any event, splenic targeting can be overcome by increasing the protein dose to 10 ug from the original 2 ug dose. A greater amount of the splenic entrapped antigen presumably was complexed with unlabeled PAM4 rather than radiolabeled antibody. Increasing the protein dose had no adverse effect upon targeting of PAM4 to the tumor or nontumor tissues.
# Neoplastic Tissues = experiment: Immunoperoxidase staining of neoplastic tissues with MAb PAM4; assay type: binding, human
# Description: as §1
# [2] = test system: Normal Adult Tissue Homogenates; experiment: PAM4 based enzyme immunoassay with tissue homogenates as antigens; assay type: binding, human
# Description: as §1
# Normal Adult Tissues = experiment: Immunoperoxidase staining of normal adult tissues with MAb PAM4; assay type: binding, human
# Description: as §1
molecule,measurement,setting,value
"CC(=O)N[C@@H](CCCCNC(=O)CN(CCN(CCN(CC(=O)O)CC(=O)O)CC(=O)O)CC(=O)O)C(=O)N[C@@H](Cc1ccc(O)cc1)C(=O)N[C@@H](CCCCNC(=O)CN(CCN(CCN(CC(=O)O)CC(=O)O)CC(=O)O)CC(=O)O)C(=O)N[C@@H](CCCCNC(=O)[C@H](CS)NC(=O)C=NNC(N)=S)C(N)=O [^99mTc-IMP192, metal not drawn] (Ac-K(DTPA)YK(DTPA)K([Cys-X1])-NH2; N-terminus and C-terminus assumed)","Tumor: Non-Tumor Tissue Ratio, Mean",CaPan1 tumor; Blood,9.93
same,"Tumor: Non-Tumor Tissue Ratio, Mean",CaPan1 tumor; Kidney,8.13
same,"Tumor: Non-Tumor Tissue Ratio, Mean",CaPan1 tumor; Liver,16.66
same,"Tumor: Non-Tumor Tissue Ratio, Mean",CaPan1 tumor; Lung,15.75
same,"Tumor: Non-Tumor Tissue Ratio, Mean",CaPan1 tumor; Pancreas,73.29
same,"Tumor: Non-Tumor Tissue Ratio, Mean",CaPan1 tumor; Spleen,14.62
same,"Tumor: Non-Tumor Tissue Ratio, Mean",CaPan1 tumor; Tumor,1.00
"CC(=O)N[C@@H](Cc1ccccc1)C(=O)N[C@@H](CCCCNC(=O)CN(CCN(CCN(CC(=O)O)CC(=O)O)CC(=O)O)CC(=O)O)C(=O)N[C@@H](Cc1ccc(O)cc1)C(=O)N[C@@H](CCCCNC(=O)CN(CCN(CCN(CC(=O)O)CC(=O)O)CC(=O)O)CC(=O)O)C(N)=O [^111In-IMP156, metal not drawn] (Ac-FK(DTPA)YK(DTPA)-NH2; N-terminus and C-terminus assumed)","Tumor: Non-Tumor Tissue Ratio, Mean",CaPan1 tumor; Blood,36.47
same,"Tumor: Non-Tumor Tissue Ratio, Mean",CaPan1 tumor; Bone,123.24
same,"Tumor: Non-Tumor Tissue Ratio, Mean",CaPan1 tumor; Kidney,7.79
same,"Tumor: Non-Tumor Tissue Ratio, Mean",CaPan1 tumor; Liver,36.07
same,"Tumor: Non-Tumor Tissue Ratio, Mean",CaPan1 tumor; Lung,44.55
same,"Tumor: Non-Tumor Tissue Ratio, Mean",CaPan1 tumor; Pancreas,155.55
same,"Tumor: Non-Tumor Tissue Ratio, Mean",CaPan1 tumor; Spleen,33.40
same,"Tumor: Non-Tumor Tissue Ratio, Mean",CaPan1 tumor; Tumor,1.00
same,"Tumor: Non-Tumor Tissue Ratio, Mean",CaPan1 tumor; W. Bone,378.00
B1,"Immunohistochemical reactivity, TOTAL (positive/examined)",Pancreatic Tumors; all pancreatic tumors,21/25
same,Immunohistochemical reactivity,"Pancreatic Tumors; pancreatic tumor 1, differentiation W",+++ (+++: >50% of tissue is stained)
same,Immunohistochemical reactivity,"Pancreatic Tumors; pancreatic tumor 2, differentiation M",++ (++: 21–50% of tissue is stained)
same,Immunohistochemical reactivity,"Pancreatic Tumors; pancreatic tumor 3, differentiation M",+ (+: 5–20% of tissue is stained)
same,Immunohistochemical reactivity,"Pancreatic Tumors; pancreatic tumor 4, differentiation M",+++ (+++: >50% of tissue is stained)
same,Immunohistochemical reactivity,"Pancreatic Tumors; pancreatic tumor 5, differentiation M",++ (++: 21–50% of tissue is stained)
same,Immunohistochemical reactivity,"Pancreatic Tumors; pancreatic tumor 6, differentiation M",+ (+: 5–20% of tissue is stained)
same,Immunohistochemical reactivity,"Pancreatic Tumors; pancreatic tumor 7, differentiation M, metastatic tissue",+++ (+++: >50% of tissue is stained)
same,Immunohistochemical reactivity,"Pancreatic Tumors; pancreatic tumor 8, differentiation M",+ (+: 5–20% of tissue is stained)
same,Immunohistochemical reactivity,"Pancreatic Tumors; pancreatic tumor 9, differentiation M",++ (++: 21–50% of tissue is stained)
same,Immunohistochemical reactivity,"Pancreatic Tumors; pancreatic tumor 10, differentiation M, metastatic tissue",++ (++: 21–50% of tissue is stained)
same,Immunohistochemical reactivity,"Pancreatic Tumors; pancreatic tumor 11, differentiation M",++ (++: 21–50% of tissue is stained)
same,Immunohistochemical reactivity,"Pancreatic Tumors; pancreatic tumor 12, differentiation M",++ (++: 21–50% of tissue is stained)
same,Immunohistochemical reactivity,"Pancreatic Tumors; pancreatic tumor 13, differentiation M",+ (+: 5–20% of tissue is stained)
same,Immunohistochemical reactivity,"Pancreatic Tumors; pancreatic tumor 14, differentiation M",++ (++: 21–50% of tissue is stained)
same,Immunohistochemical reactivity,"Pancreatic Tumors; pancreatic tumor 15, differentiation M",+++ (+++: >50% of tissue is stained)
same,Immunohistochemical reactivity,"Pancreatic Tumors; pancreatic tumor 16, differentiation M",+ (+: 5–20% of tissue is stained)
same,Immunohistochemical reactivity,"Pancreatic Tumors; pancreatic tumor 17, differentiation M",−
same,Immunohistochemical reactivity,"Pancreatic Tumors; pancreatic tumor 18, differentiation M",++ (++: 21–50% of tissue is stained)
same,Immunohistochemical reactivity,"Pancreatic Tumors; pancreatic tumor 19, differentiation M",+++ (+++: >50% of tissue is stained)
same,Immunohistochemical reactivity,"Pancreatic Tumors; pancreatic tumor 20, differentiation M",+ (+: 5–20% of tissue is stained)
same,Immunohistochemical reactivity,"Pancreatic Tumors; pancreatic tumor 21, differentiation M",+++ (+++: >50% of tissue is stained)
same,Immunohistochemical reactivity,"Pancreatic Tumors; pancreatic tumor 22, differentiation P",+ (+: 5–20% of tissue is stained)
same,Immunohistochemical reactivity,"Pancreatic Tumors; pancreatic tumor 23, differentiation P",−
same,Immunohistochemical reactivity,"Pancreatic Tumors; pancreatic tumor 24, differentiation P",−
same,Immunohistochemical reactivity,"Pancreatic Tumors; pancreatic tumor 25, differentiation P",−
same,tumors positive,Pancreatic Tumors; poorly differentiated pancreatic tumors,one out of four
same,pancreatic cancers reactive,Pancreatic Tumors; twenty one out of twenty five pancreatic cancers,85%
same,tumors positive,Pancreatic Tumors; well and moderately differentiated pancreatic tumors,twenty out of twenty one
same,targeting of lesions,tumors,a majority of the lesions were targeted
same,uptake in normal tissues,tumors,no indication of uptake in normal tissues
same,reactivity with chronic pancreatitis specimens,[1],only weakly reactive with three out of twelve
same,concentration of radiolabeled PAM4 within the CaPan1 tumor on increasing protein dose,CaPan1,more than doubled
same,"dose to the tumor, fold higher than MN14",CaPan1,3.2 fold
same,splenic uptake,CaPan1,3.1-7.5 % ID/g
same,tumor:blood ratio,CaPan1,12.7±2.3
same,Positive/Total,Neoplastic Tissues; Breast neoplastic tissue,0/30
same,Positive/Total,Neoplastic Tissues; Colon neoplastic tissue,10/26
same,Positive/Total,Neoplastic Tissues; Kidney neoplastic tissue,0/4
same,Positive/Total,Neoplastic Tissues; Liver neoplastic tissue,0/10
same,Positive/Total,Neoplastic Tissues; Lung neoplastic tissue,1/15
same,Positive/Total,Neoplastic Tissues; Ovarian neoplastic tissue,0/10
same,Positive/Total,Neoplastic Tissues; Pancreas neoplastic tissue,21/25
same,Positive/Total,Neoplastic Tissues; Prostate neoplastic tissue,0/4
same,Positive/Total,Neoplastic Tissues; Stomach neoplastic tissue,1/5
same,specimens reactive with PAM4 by immunohistochemistry,Neoplastic Tissues; colorectal cancer specimens,40%
same,PAM4 reactivity by EIA,"[2]; Adrenal, mean from two autopsy specimens",1.3 ug/g tissues
same,PAM4 reactivity by EIA,"[2]; Bladder, mean from two autopsy specimens",4.9 ug/g tissues
same,PAM4 reactivity by EIA,[2]; CaPan1 Pancreatic Tumor,569 ug/g tissues
same,PAM4 reactivity by EIA,"[2]; Colon, mean from two autopsy specimens",74.5 ug/g tissues
same,PAM4 reactivity by EIA,"[2]; Duodenum, mean from two autopsy specimens",44.7 ug/g tissues
same,PAM4 reactivity by EIA,"[2]; Esophagus, mean from two autopsy specimens",8.1 ug/g tissues
same,PAM4 reactivity by EIA,"[2]; Gallbladder, mean from two autopsy specimens",5.6 ug/g tissues
same,PAM4 reactivity by EIA,"[2]; Heart, mean from two autopsy specimens",3.7 ug/g tissues
same,PAM4 reactivity by EIA,"[2]; Jejunum, mean from two autopsy specimens",60.6 ug/g tissues
same,PAM4 reactivity by EIA,"[2]; Kidney, mean from two autopsy specimens",6.6 ug/g tissues
same,PAM4 reactivity by EIA,"[2]; Liver, mean from two autopsy specimens",0.0 ug/g tissues
same,PAM4 reactivity by EIA,"[2]; Pancreas, mean from two autopsy specimens",6.4 ug/g tissues
same,PAM4 reactivity by EIA,"[2]; Spleen, mean from two autopsy specimens",3.4 ug/g tissues
same,PAM4 reactivity by EIA,"[2]; Stomach, mean from two autopsy specimens",61.3 ug/g tissues
same,PAM4 reactivity by EIA,"[2]; Testes, mean from two autopsy specimens",3.9 ug/g tissues
same,PAM4 reactivity by EIA,"[2]; Thyroid, mean from two autopsy specimens",3.5 ug/g tissues
same,PAM4 reactivity by EIA,"[2]; Ureter, mean from two autopsy specimens",2.6 ug/g tissues
same,Staining Reaction,Normal Adult Tissues; Colon,+ goblet cells
same,Staining Reaction,Normal Adult Tissues; Duodenum,+ goblet cells
same,Staining Reaction,Normal Adult Tissues; Ileum,+ goblet cells
same,Staining Reaction,Normal Adult Tissues; Jejunum,+ goblet cells
same,Staining Reaction,Normal Adult Tissues; Stomach,+ mucus secreting cells
